The source of these data is patent US20220324969A1 (MYTHIC THERAPEUTICS, published 2022).

Substitutions are numbered along the chain they refer to. In names and notes the source's numbering stands.

Sequences and labels used below:
B1: MYT1602 (antibody, V domains shown)
VH: EVQLVQSGAEVKKPGSSVKVSCKASGYTITDSNIHWVRQAPGQSLEWIGYIYPYNGGTDYNQKFKNRATLTVDNPTNTAYMELSSLRSEDTDFYYCVNGNPWLAYWGQGTLVTVSS
VL: DIQLTQSPSTLSASVGDRVTITCRASESLDNYGIRHLTWFQQKPGKAPKLLMYAASNQGSGVPSRFSGSGSGTEFTLTISSLQPDDFATYYCQQTKEVPWSFGQGTKVEVK
notes: IgG; gemtuzumab VL variant #13 (F36H)
B2: MYT1614 (antibody, V domains shown)
VH: B1 VH
VL: B1 VL with H36F, T95H
notes: IgG; gemtuzumab VL variant #25 (T95H)
B3: MYT1608 (antibody, V domains shown)
VH: B1 VH
VL: B1 VL with H36F, N57H
notes: IgG; gemtuzumab VL variant #19 (N57H)
B4: MYT1619 (antibody, V domains shown)
VH: B1 VH
VL: B1 VL with H36F, W100H
notes: IgG; gemtuzumab VL variant #30 (W100H)
B5: MYT1612 (antibody, V domains shown)
VH: B1 VH
VL: B1 VL with H36F, Q93H
notes: IgG; gemtuzumab VL variant #23 (Q93H)
B6: MYT1620 (antibody, V domains shown)
VH: B1 VH
VL: B1 VL with H36F, S101H
notes: IgG; gemtuzumab VL variant #31 (S101H)
B7: MYT1611 (antibody, V domains shown)
VH: B1 VH
VL: B1 VL with H36F, S60H
notes: IgG; gemtuzumab VL variant #22 (S60H)
B8: MYT1607 (antibody, V domains shown)
VH: B1 VH
VL: B1 VL with H36F, S56H
notes: IgG; gemtuzumab VL variant #18 (S56H)
B9: MYT1604 (antibody, V domains shown)
VH: B1 VH
VL: B1 VL with H36F, T38H
notes: IgG; gemtuzumab VL variant #15 (T38H)
B10: MYT1605 (antibody, V domains shown)
VH: B1 VH
VL: B1 VL with H36F, A54H
notes: IgG; gemtuzumab VL variant #16 (A54H)
B11: MYT1609 (antibody, V domains shown)
VH: B1 VH
VL: B1 VL with H36F, Q58H
notes: IgG; gemtuzumab VL variant #20 (Q58H)
B12: MYT1613 (antibody, V domains shown)
VH: B1 VH
VL: B1 VL with H36F, Q94H
notes: IgG; gemtuzumab VL variant #24 (Q94H)
B13: MYT1615 (antibody, V domains shown)
VH: B1 VH
VL: B1 VL with H36F, K96H
notes: IgG; gemtuzumab VL variant #26 (K96H)
B14: MYT1617 (antibody, V domains shown)
VH: B1 VH
VL: B1 VL with H36F, V98H
notes: IgG; gemtuzumab VL variant #28 (V98H)
B15: MYT1610 (antibody, V domains shown)
VH: B1 VH
VL: B1 VL with H36F, G59H
notes: IgG; gemtuzumab VL variant #21 (G59H)
B16: MYT1616 (antibody, V domains shown)
VH: B1 VH
VL: B1 VL with H36F, E97H
notes: IgG; gemtuzumab VL variant #27 (E97H)
B17: MYT1606 (antibody, V domains shown)
VH: B1 VH
VL: B1 VL with H36F, A55H
notes: IgG; gemtuzumab VL variant #17 (A55H)
B18: MYT1213 (antibody, V domains shown)
VH: QVQLQQPGAEVVKPGASVKMSCKASHYTFTSYYIHWIKQTPGQGLEWVGVIYPGNDDISYNQKFQGKATLTADKSSTTAYMQLSSLTSEDSAVYYCAREVRLRYFDVWGQGTTVTVSS
VL: EIVLTQSPGSLAVSPGERVTMSCKSSQSVFFSSSQKNYLAWYQQIPGQSPRLLIYWASTRESGVPDRFTGSGSGTDFTLTISSVQPEDLAIYYCHQYLSSRTFGQGTKLEIK
notes: IgG; IMGN779 VH variant #1 (G26H)
B19: MYT1236 (antibody, V domains shown)
VH: B18 VH with H26G, K63H
VL: B18 VL
notes: IgG; IMGN779 VH variant #24 (K63H)
B20: MYT1237 (antibody, V domains shown)
VH: B18 VH with H26G, F64H
VL: B18 VL
notes: IgG; IMGN779 VH variant #25 (F64H)
B21: MYT1221 (antibody, V domains shown)
VH: B18 VH with H26G, I34H
VL: B18 VL
notes: IgG; IMGN779 VH variant #9 (I34H)
B22: MYT1234 (antibody, V domains shown)
VH: B18 VH with H26G, N61H
VL: B18 VL
notes: IgG; IMGN779 VH variant #22 (N61H)
B23: MYT1231 (antibody, V domains shown)
VH: B18 VH with H26G, I58H
VL: B18 VL
notes: IgG; IMGN779 VH variant #19 (I58H)
B24: MYT1217 (antibody, V domains shown)
VH: B18 VH with H26G, T30H
VL: B18 VL
notes: IgG; IMGN779 VH variant #5 (T30H)
B25: MYT1224 (antibody, V domains shown)
VH: B18 VH with H26G, I51H
VL: B18 VL
notes: IgG; IMGN779 VH variant #12 (I51H)
B26: MYT1223 (antibody, V domains shown)
VH: B18 VH with H26G, V50H
VL: B18 VL
notes: IgG; IMGN779 VH variant #11 (V50H)
B27: MYT1220 (antibody, V domains shown)
VH: B18 VH with H26G, Y33H
VL: B18 VL
notes: IgG; IMGN779 VH variant #8 (Y33H)
B28: MYT1216 (antibody, V domains shown)
VH: B18 VH with H26G, F29H
VL: B18 VL
notes: IgG; IMGN779 VH variant #4 (F29H)
B29: MYT1232 (antibody, V domains shown)
VH: B18 VH with H26G, S59H
VL: B18 VL
notes: IgG; IMGN779 VH variant #20 (S59H)
B30: MYT1235 (antibody, V domains shown)
VH: B18 VH with H26G, Q62H
VL: B18 VL
notes: IgG; IMGN779 VH variant #23 (Q62H)
B31: MYT1230 (antibody, V domains shown)
VH: B18 VH with H26G, D57H
VL: B18 VL
notes: IgG; IMGN779 VH variant #18 (D57H)
B32: MYT1214 (antibody, V domains shown)
VH: B18 VH with H26G, Y27H
VL: B18 VL
notes: IgG; IMGN779 VH variant #2 (Y27H)
B33: MYT1233 (antibody, V domains shown)
VH: B18 VH with H26G, Y60H
VL: B18 VL
notes: IgG; IMGN779 VH variant #21 (Y60H)
B34: MYT1215 (antibody, V domains shown)
VH: B18 VH with H26G, T28H
VL: B18 VL
notes: IgG; IMGN779 VH variant #3 (T28H)
B35: MYT1225 (antibody, V domains shown)
VH: B18 VH with H26G, Y52H
VL: B18 VL
notes: IgG; IMGN779 VH variant #13 (Y52H)
B36: MYT1228 (antibody, V domains shown)
VH: B18 VH with H26G, N55H
VL: B18 VL
notes: IgG; IMGN779 VH variant #16 (N55H)
B37: MYT1222 (antibody, V domains shown)
VH: B18 VH with H26G, H35A
VL: B18 VL
notes: IgG; IMGN779 VH variant #10 (H35A)
B38: MYT1227 (antibody, V domains shown)
VH: B18 VH with H26G, G54H
VL: B18 VL
notes: IgG; IMGN779 VH variant #15 (G54H)
B39: MYT1219 (antibody, V domains shown)
VH: B18 VH with H26G, Y32H
VL: B18 VL
notes: IgG; IMGN779 VH variant #7 (Y32H)
B40: MYT1229 (antibody, V domains shown)
VH: B18 VH with H26G, D56H
VL: B18 VL
notes: IgG; IMGN779 VH variant #17 (D56H)
B41: MYT1218 (antibody, V domains shown)
VH: B18 VH with H26G, S31H
VL: B18 VL
notes: IgG; IMGN779 VH variant #6 (S31H)
B42: MYT1226 (antibody, V domains shown)
VH: B18 VH with H26G, P53H
VL: B18 VL
notes: IgG; IMGN779 VH variant #14 (P53H)

Chain of CD33 (Sino Biological, Cat #12238-H08H) (P20138 18-259 limits assumed): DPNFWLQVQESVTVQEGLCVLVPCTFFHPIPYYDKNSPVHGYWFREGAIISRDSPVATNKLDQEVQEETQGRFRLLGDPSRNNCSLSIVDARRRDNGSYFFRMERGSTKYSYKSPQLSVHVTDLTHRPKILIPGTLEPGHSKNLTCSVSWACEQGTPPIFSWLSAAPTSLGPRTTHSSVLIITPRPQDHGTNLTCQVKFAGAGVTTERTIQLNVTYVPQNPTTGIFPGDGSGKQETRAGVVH

The assay addresses CD33 (Sino Biological, Cat #12238-H08H) (UniProt P20138 18-259). As to the kind of experiment: BLI, IgG captured on anti-human Fc sensor, 50 nM CD33, pH 7.4 vs pH 5.4.
As for B1, the binding result was “binds”.

Take B2: the binding result was “binds”.

On to B3, for which the binding result is “binds”.

Regarding B4, the binding result is listed as “binds”.

Consider B5, for which the binding result was “binds”.

As for B6, the binding result is reported as “binds”.

In the case of B7, the binding result was “binds”.

As to B8, the binding result was “binds”.

Regarding B9, the binding result is reported as “binds”.

With B10, the binding result is on record as “binds”.

Regarding B11, the binding result is “binds”.

Consider B12, for which the binding result is “binds”.

Turning to B13, the binding result was “binds”.

In the case of B14, the binding result is “binds”.

Turning to B15, the binding result is recorded as “binds”.

For B16, the binding result is “binds”.

Regarding B17, the binding result is “binds”.

On to B18, for which the binding result is “binds”.

Regarding B19, the binding result was “binds”.

Turning to B20, the binding result was “binds”.

On to B21, for which the binding result is “binds”.

As for B22, the binding result is given as “binds”.

B23: the binding result is “binds”.

Regarding B24, the binding result was “binds”.

B25: the binding result is recorded as “binds”.

B26: the binding result is recorded as “binds”.

Turning to B27, the binding result is “binds”.

B28: the binding result is listed as “binds”.

For B29, the binding result is on record as “binds”.

Take B30: the binding result was “binds”.

On to B31, for which the binding result is “binds”.

Take B32: the binding result is recorded as “binds”.

B33: the binding result is reported as “binds”.

For the molecule B34, the binding result was “binds”.

As for B35, the binding result is on record as “binds”.

As to B36, the binding result is on record as “binds”.

In the case of B37, the binding result is “binds”.

For B38, the binding result is “binds”.

Take B39: the binding result is “binds”.

For the molecule B40, the binding result is “binds”.

Take B41: the binding result is on record as “binds”.

Regarding B42, the binding result is on record as “binds”.
